Test results taken from PMC4901313.

Biological target: Gp45, receptor binding protein (RBP) of Staphylococcus aureus phage ϕ11 (Staphylococcus aureus phage ϕ11)
Assay: crystal structure; native crystals, space group P1, 2.20 Å; grown in 0.1 M bicine/Trizma base pH 8.5, 10% w/v PEG 8000, 20% v/v ethylene glycol, 0.12 M monosaccharide-mix at 16 °C; three monomers related by non-crystallographic three-fold symmetry

## Gp45, receptor binding protein (RBP) of Staphylococcus aureus phage ϕ11 (natural protein)
  stoichiometry N: 3
